Measured values taken from patent US20160215040A1 (Regeneron, published 2016).

T1: hCNTFR.mmh (ciliary neurotrophic factor receptor.mmh) (human (printed as hCNTFR), UniProt P26992 23-342)
T1 construct: also called negative control protein; not shown: mmh (myc-myc-hexahistidine) tag
T1 sequence: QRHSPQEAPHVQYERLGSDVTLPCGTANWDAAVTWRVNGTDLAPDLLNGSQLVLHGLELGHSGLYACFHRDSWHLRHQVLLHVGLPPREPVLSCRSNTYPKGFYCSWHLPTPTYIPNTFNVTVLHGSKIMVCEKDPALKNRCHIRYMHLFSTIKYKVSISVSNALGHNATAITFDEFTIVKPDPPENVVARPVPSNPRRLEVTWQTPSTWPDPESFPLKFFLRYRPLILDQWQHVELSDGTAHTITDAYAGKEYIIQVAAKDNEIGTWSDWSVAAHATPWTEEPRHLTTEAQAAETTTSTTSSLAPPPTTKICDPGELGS

T2: Ebola virus GP, Cote d'Ivoire strain, on VLPs (Ebola virus, Cote d'Ivoire strain, UniProt Q66810 33-676)
T2 construct: also called Cote d'Ivoire FJ217162; Ivory Coast
T2 sequence: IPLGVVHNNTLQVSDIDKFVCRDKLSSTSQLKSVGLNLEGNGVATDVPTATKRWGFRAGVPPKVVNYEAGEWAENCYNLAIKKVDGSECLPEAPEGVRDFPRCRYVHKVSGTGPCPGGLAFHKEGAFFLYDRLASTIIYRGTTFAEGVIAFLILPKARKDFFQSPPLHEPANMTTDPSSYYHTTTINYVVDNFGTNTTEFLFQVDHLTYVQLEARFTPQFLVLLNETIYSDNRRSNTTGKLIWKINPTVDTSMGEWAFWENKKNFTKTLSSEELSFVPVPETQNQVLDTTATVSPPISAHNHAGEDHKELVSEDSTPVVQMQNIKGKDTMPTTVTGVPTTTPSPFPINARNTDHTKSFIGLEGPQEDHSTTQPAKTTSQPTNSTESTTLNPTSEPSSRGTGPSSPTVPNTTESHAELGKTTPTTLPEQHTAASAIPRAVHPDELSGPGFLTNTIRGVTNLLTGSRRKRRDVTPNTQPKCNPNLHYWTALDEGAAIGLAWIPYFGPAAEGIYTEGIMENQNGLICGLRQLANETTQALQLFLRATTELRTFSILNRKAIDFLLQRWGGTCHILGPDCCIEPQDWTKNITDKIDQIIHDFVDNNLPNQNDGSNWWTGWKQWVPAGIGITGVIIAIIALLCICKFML

T3: Ebola virus GP, Sudan strain, on VLPs (Ebola virus, Sudan strain, UniProt Q7T9D9 33-676)
T3 construct: also called Sudan NC_006432
T3 sequence: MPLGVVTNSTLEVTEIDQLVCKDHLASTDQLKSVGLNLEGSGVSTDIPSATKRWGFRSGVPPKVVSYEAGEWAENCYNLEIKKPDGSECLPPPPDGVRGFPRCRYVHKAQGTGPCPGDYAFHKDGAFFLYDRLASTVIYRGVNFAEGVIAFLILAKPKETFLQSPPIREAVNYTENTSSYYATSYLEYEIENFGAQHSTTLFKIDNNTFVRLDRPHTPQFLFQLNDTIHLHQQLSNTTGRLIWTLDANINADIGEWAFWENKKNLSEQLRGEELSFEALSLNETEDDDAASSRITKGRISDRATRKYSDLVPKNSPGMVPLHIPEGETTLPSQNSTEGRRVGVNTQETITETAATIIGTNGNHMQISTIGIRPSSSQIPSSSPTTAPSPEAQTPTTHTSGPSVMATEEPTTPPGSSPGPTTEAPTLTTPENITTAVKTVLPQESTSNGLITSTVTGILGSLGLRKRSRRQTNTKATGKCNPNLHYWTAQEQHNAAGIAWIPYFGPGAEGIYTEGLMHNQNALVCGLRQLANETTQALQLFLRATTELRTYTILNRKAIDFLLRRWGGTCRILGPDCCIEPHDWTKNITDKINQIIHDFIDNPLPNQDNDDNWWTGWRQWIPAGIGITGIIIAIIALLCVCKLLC


What was measured:
[1] = molecular target: T4, Ebola virus GP with a C-terminal polyhistidine tag (Sino Biologicals, Catalog #40442-V08B1) (Ebola virus, UniProt P87666 33-650); test: SPR 25C, mAb captured
T4 construct: also called EbolaGP.his; Ebola virus GP.his

[2] = molecular target: T4, Ebola virus GP with a C-terminal …; test: SPR 37C, mAb captured
[3] = molecular target: T1, hCNTFR.mmh (ciliary neurotrophic factor …); test: BLI, mAb captured, 25C
[4] = molecular target: T2, Ebola virus GP, Cote d'Ivoire strain, …; test: MSD, VLPs coated
[5] = molecular target: T3, Ebola virus GP, Sudan strain, on VLPs; test: MSD, VLPs coated
[6] = molecular target: T4, Ebola virus GP with a C-terminal …; test: SPR 37C, mAb captured, pH chase

Binder	Kd [1] [nM]	koff [1] [s⁻¹]	kon [1] [M⁻¹ s⁻¹]	t½ [1] [min]	Kd [2] [nM]	koff [2] [s⁻¹]	kon [2] [M⁻¹ s⁻¹]	t½ [2] [min]	binding result [3]	binding result [4]	binding result [5]	t½ ratio pH 7.4/pH 5.0 [6]	t½ ratio pH 7.4/pH 6.0 [6]
H1H17219P (antibody, V domains shown) VH: QVQLQQSGPGLVKPSQTLSLTCAISGDSVSSNIPAWNWIRQSPSRGLEWLGRTYYRSKWYNDYAVSVKSRITINPDTSKNHFSLQLNSVTPEDTAVYYCARGRVYDRSSRYFYAMDVWGQGTTVTVSS VL: not shown	0.934	2.9e-05	31100	398	0.227	≤ 1e-05	44100	≥ 1160	no binding (tested: below 0.10 nm at 300 nM)	no binding	no binding	1	1
H1H17139P (antibody, V domains shown) VH: EVQLVESGGGLVQPGGSLRLSCAASGFTFSSYDMHWVRQATGKGLEWVSAIGTAGDTYYPGSVKGRFTISRENAKNSLYLQMNSLRAGDTAVYYCARTWFGELYFDYWGQGTLVTVSS VL: not shown	7.13	0.000163	22900	70.8	20.6	0.000512	24800	22.5	no binding (tested: below 0.10 nm at 300 nM)	no binding	no binding	0.2	0.2
H1H17214P (antibody, V domains shown) VH: EVQLVESGGGLVQPGGSLRLSCAASKFTFDTFAMSWVRQAPGKGLEWVSFISSSGGRTDYVDSVKGRFTISRDNSKNTLYLQMNSLRAEDTAVYYCAKERTIFGVLILGPDNYGMDVWGQGTTVTVSS VL: DIQMTQSPSSLSAFVGDRVTITCRASQSISTYLNWYQQKPGKAPKLLIYAASSLQSGVSSRFSGSGSGTDFTLTISSLQPEDFATYYCQQSYSAPPITFGQGTRLEIK	≤ 0.266	≤ 1e-05	37600	≥ 1160	4.2	0.000154	36700	74.9	no binding (tested: below 0.10 nm at 300 nM)	no binding	no binding	1	1
H1H17223P (antibody, V domains shown) VH: EVQLVESGGGLVQPGGSLRLSCAASGFTFRTYDMHWVRQATGKGLEWVSAIGTAGDTYYPGSVKGRFTISRENAKNSLYLQMNSLRAGDTAVYYCARTIFGVVLTFDYWGQGTLVTVSS VL: DIQMTQSPSSLSASVGDRVTITCRASQSISSSLNWYQQKPGKAPKLLIYAASSLHSGVPSRFSGSGSGTDFTLTISSLQPEDFATYYCQQTYSIPPTTFGQGTKVEIK	2.03	6.08e-05	30000	190	6.89	0.000242	35100	47.7	no binding (tested: below 0.10 nm at 300 nM)	no binding	no binding	0.4	0.4
H1H17203P (antibody, V domains shown) VH: QVQLVESGGGVVQPGRSLRLSCAASGFTFNNYGMHWVRQAPGMGLEWVAVIWHDGSDKYYADSVKGRFTISRDNSKNTLYLQMNSLRAEDTAVYYCARNWNLFDYWGQGTLVTVSS VL: DIQMTQSPSSLSASVGDRITITCRASQSISTYLHWYQQKPGKAPKLLIYAASTLQSGVPSRFSGSGSGTDFTLTISSLQPEDFATYYCQQSFSTPPINFGQGTKLEIK	6.04	0.000168	27800	68.7	30.9	0.00119	38500	9.7	no binding (tested: below 0.10 nm at 300 nM)	no binding	no binding	0.1	0.2
H1M17354N (antibody, V domains shown, also called HCAF05C08-22) VH: QVQLVQSGAEVKKPGASVKVSCKASGYTFTSYYMHWVRQAPGQGLEWLGIINPSGGSTSYAQKFQGRVTMTRDTSTSTVYMELSSLRSEDTAVYYCARETGEAGEVFNYWGQGTQVTVSS VL: DIQMTQSPSSLSASVGDRVTITCRASQIISRYLNWYQHKPGKAPKVLIYAASTLQSGVPSRFSGSGSGTDFTLTISSLQPEDFATYYCQQSYSTPPITFGQGTRLEIK	63.9	0.00316	49400	3.7	113	0.00573	50800	2	no binding (tested: below 0.10 nm at 300 nM)	no binding	no binding	1.3	1.3
H1H17228P (antibody, V domains shown) VH: EVQLVESGGGLVQPGGSLRLSCAASGFTFSNYAMIWVRQAPGKGLEWVSGISGSGGSIYYADSVKGRFTISRDNSKNTLYLQMNSLRAEDTAVYYCAKEGIISMVRGLINYYHGMDVWGQGTTVTVSS VL: not shown	37.6	0.00169	44900	6.9	52.3	0.00383	73200	3	no binding (tested: below 0.10 nm at 300 nM)	no binding	no binding	0.5	0.6
H1H17199P (antibody, V domains shown) VH: EVQLVESGGGLVQPGGSLRLSCAASGFTFSDHYMVWVRQAPGKGLEWVGRTRNKANSYSTEYAASVKGRFTISRDDSKKSLYLQMNSLKTEDTAVYYCARGGETLWFGESNYGMDVWGQGTTVTVSS VL: EIVLTQSPDTLSLSPGERATLSCRASQSVSSTYLAWYQQKPGQAPSLLIYGASSRATGIPDRFSGSGSGTDFTLTISRLEPEDFAVYYCQQYGRSPLTFGGGTKVEIK	18.9	0.000236	12500	49	42.2	0.00128	30400	9	no binding (tested: below 0.10 nm at 300 nM)	no binding	no binding	0.1	0.4
